Experiment [1] addresses T1, recombinant human C1r2s2 tetramer (human, UniProt P09871 16-688; P00736 18-705).
T1 construct: C1s and C1r co-expressed in HEK293 and purified from the supernatant as tetramer; also called hC1r2s2
T1 chain 1: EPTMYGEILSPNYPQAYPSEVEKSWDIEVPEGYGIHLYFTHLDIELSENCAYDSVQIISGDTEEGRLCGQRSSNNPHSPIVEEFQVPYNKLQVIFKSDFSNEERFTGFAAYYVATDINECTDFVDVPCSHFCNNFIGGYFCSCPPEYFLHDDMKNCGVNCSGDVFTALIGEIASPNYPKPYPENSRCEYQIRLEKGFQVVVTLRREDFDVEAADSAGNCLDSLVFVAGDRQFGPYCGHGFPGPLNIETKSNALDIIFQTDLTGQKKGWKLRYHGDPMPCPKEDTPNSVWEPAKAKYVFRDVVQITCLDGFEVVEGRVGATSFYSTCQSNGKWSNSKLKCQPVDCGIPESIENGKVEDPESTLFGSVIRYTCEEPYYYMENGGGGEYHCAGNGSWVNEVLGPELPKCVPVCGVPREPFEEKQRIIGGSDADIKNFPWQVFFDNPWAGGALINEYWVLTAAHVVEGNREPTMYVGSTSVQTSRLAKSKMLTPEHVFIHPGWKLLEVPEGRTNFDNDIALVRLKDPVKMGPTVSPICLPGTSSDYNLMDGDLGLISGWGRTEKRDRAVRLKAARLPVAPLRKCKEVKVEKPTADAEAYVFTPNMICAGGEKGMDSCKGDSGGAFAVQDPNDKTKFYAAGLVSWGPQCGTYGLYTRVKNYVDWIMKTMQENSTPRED
T1 chain 2: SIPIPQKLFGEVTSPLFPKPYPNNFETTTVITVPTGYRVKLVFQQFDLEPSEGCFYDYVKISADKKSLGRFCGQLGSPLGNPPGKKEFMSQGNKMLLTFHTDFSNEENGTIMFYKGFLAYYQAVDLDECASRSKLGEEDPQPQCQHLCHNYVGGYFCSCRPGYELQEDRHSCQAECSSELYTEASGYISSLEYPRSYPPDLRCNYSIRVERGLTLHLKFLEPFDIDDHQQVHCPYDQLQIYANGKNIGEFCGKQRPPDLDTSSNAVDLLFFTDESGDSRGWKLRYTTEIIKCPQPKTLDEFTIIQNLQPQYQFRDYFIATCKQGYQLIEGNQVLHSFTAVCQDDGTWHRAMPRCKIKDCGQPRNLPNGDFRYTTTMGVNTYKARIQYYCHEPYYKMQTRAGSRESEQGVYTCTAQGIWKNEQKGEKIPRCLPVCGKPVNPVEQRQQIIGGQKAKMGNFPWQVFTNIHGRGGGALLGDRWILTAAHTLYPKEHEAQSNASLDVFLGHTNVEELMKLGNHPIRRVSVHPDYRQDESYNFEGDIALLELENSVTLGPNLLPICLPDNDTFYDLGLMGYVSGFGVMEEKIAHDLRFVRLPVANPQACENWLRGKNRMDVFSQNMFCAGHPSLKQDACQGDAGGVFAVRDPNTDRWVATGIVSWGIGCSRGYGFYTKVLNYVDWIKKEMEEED
The experiment is described as follows: SPR (Biacore T200), 37 C, pH 6.0; hC1r2s2 captured by IPN009, antibody as analyte; pH 6.0, 37 C; hC1r2s2 captured by IPN009 on the chip, antibody as analyte. The protocol:
(§1) The binding property of each sample at pH7.4 and pH6.0 was determined at 37° C. using BIACORE® T200 instrument (Cytiva). […] 20 mM ACES, 150 mM NaCl, 1.2 mM CaCl₂, 1 mg/mL BSA (not containing IgG), 1 mg/mL CMD, 0.05% Tween® 20, 0.005 w/v % NaN₃, pH7.4 or pH6.0 buffer was used as the running buffer. […] The antibody solution was added thereto at 30 μL/min for 120 seconds, the running buffer was then added at 30 μL/min for 180 seconds, and the dissociation constant (KD) of each antibody for hC1r2s2 and cyC1r2s2 was calculated. […] The sensor surface was regenerated every cycle, using 3 M MgCl2 (prepared in-house). The KD value was calculated using BIACORE® T200 evaluation software version 2.0 (Cytiva). The binding strengths under each pH condition were compared by dividing the KD value at pH6.0 with the KD value at pH7.4.
A general note: SPR reads the build-up and loss of mass on a sensor chip optically.

Experiment [2] deals with T1, recombinant human C1r2s2 tetramer. The experiment is described as follows: SPR (Biacore T200), 37 C, pH 7.4; hC1r2s2 captured by IPN009, antibody as analyte; pH 7.4, 37 C; hC1r2s2 captured by IPN009 on the chip, antibody as analyte. As to the method:
as §1

For experiment [3], the target named is T2, recombinant cynomolgus C1r2s2 tetramer (cynomolgus monkey, limits assumed).
T2 construct: also called cyC1r2s2; monkey C1r2s2
T2 chain 1: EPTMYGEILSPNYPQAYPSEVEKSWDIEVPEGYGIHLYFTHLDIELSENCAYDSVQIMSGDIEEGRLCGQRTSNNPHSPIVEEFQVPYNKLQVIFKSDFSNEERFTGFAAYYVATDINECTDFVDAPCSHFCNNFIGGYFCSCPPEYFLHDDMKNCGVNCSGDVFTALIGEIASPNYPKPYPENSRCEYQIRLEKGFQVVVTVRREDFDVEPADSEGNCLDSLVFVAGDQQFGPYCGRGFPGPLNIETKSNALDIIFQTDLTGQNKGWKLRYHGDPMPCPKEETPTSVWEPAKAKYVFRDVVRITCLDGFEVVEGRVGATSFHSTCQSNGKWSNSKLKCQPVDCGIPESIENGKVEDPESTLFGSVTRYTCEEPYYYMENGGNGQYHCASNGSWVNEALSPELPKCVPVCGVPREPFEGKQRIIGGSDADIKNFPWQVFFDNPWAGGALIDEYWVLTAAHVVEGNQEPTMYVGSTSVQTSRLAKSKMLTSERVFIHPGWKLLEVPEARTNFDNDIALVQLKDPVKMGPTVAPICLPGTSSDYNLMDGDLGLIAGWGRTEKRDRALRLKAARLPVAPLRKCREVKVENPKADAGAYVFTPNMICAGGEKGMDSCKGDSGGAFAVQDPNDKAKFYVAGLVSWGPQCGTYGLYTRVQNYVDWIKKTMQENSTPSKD
T2 chain 2: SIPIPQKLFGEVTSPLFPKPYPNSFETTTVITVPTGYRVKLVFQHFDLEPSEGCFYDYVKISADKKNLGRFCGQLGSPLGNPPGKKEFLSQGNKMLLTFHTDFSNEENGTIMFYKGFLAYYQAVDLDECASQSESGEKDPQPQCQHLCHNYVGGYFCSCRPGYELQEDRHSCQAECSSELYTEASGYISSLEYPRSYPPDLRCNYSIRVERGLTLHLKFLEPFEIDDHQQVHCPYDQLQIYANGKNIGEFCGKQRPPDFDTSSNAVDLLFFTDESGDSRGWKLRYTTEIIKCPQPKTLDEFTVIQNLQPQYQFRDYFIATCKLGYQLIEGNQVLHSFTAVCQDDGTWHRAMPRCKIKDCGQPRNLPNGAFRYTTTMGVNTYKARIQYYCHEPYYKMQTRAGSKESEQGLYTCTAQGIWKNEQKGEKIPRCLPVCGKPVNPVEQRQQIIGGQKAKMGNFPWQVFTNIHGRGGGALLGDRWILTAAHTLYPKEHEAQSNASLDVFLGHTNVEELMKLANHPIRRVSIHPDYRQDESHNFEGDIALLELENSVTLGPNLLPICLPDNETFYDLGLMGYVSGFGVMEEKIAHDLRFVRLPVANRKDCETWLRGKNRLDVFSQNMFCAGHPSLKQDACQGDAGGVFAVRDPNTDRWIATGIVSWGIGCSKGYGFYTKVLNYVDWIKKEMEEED
The experiment is described as follows: SPR (Biacore T200), 37 C, pH 7.4; cyC1r2s2 captured by IPN009, antibody as analyte. As to the method:
as §1

Experiment [4] deals with T2, recombinant cynomolgus C1r2s2 tetramer. Description: SPR (Biacore T200), 37 C, pH 6.0; cyC1r2s2 captured by IPN009, antibody as analyte. The protocol: as §1
For experiment [5], the target named is T1, recombinant human C1r2s2 tetramer. Description: SPR (Biacore T200), 37 C; ratio of KD at pH 6.0 to KD at pH 7.4. As to the method:
as §1

Experiment [6] addresses T2, recombinant cynomolgus C1r2s2 tetramer. The experiment is described as above. The protocol: as §1
Experiment [7] addresses T1, recombinant human C1r2s2 tetramer. Description: SPR (Biacore T200), IPN009 immobilised on CM5 chip as capture antibody. As to the method:
as §1

For experiment [8], the target named is T2, recombinant cynomolgus C1r2s2 tetramer. The experiment is described as above. As to the method:
as §1

In general, Kd refers to the equilibrium constant for the complex coming apart.

B1: COS0637pHv3-TT91R (antibody, human IgG1, V domains shown)
VH: QVQLVESGGGVVQPGRSLRLSCAASGFTFSAYAMNWIRQPPGKGLEWIGLIYGSGHEFYASWAEERVTISVDTSKNQFSLKLSSVTAADTAVYYCARGRSKNYVSGFHLWGQGTLVTVSS
VL: DIQMTQSPSSLSASVGDRVTITCQASQILHDKKNLAWYQQKPGQPPKLLIYQASQLESGVPSRFSGSGSGTDFTLTISSLQPEDFATYYCHGEFSYESADLNQFGQGTKVEIKR
notes: Modified human IgG1 constant region TT91R, light chain constant region SK1
In the case of B1, the Kd in experiment [1] came out at 10.3 nM; in experiment [2], 0.388 nM; in experiment [3] it was 0.502 nM; in experiment [4], 22 nM. The “KD (pH 6.0)/KD (pH 7.4)” value was found to be 26.5 in experiment [5] and 43.8 in experiment [6].

B2: IPN009VH2VK3-SG1148 (antibody, human IgG1, kappa, V domains shown)
VH: EVMLVESGGGLVKPGGSLRLSCAASGFTFSNYAMSWVRQAPGKGLEWVATISSGGSHTYYLDSVKGRFTISRDNSKDTLYLQMNSLRAEDTALYYCARLFTGYAMDYWGQGTLVTVSS
VL: QIVLTQSPATLSLSPGERATLSCTASSSVSSSYLHWYQQKPGKAPKLWIYSTSNLASGVPSRFSGSGSGTDYTLTISSLQPEDFATYYCHQYYRLPPITFGQGTKLEIKR
notes: Anti-C1s / anti-human C1r2s2 antibody immobilised on the chip as capture reagent
For B2, the binding result in experiment [7] and in experiment [8] was “binds” throughout.

The values are drawn from patent US20240287163A1 (Chugai, published 2024).
